Tests used:
Zinc finger protein 699 = molecular target: T1, Zinc finger protein 699 (human, UniProt Q32M78 1-642)
T1 construct: HuProt array protein, full-length recombinant from yeast; also called ZNF699

nudix hydrolase 21 = molecular target: T2, nudix hydrolase 21 (human, UniProt O43809 2-227)
T2 construct: HuProt array protein, full-length recombinant from yeast; also called NUDT21

[1] = molecular target: T3, zinc finger protein 431, transcript variant 2 (human, UniProt Q8TF32 1-576)
T3 construct: HuProt array protein, full-length recombinant from yeast; also called ZNF431

[2] = molecular target: T4, keratin associated protein 12-3 (human, UniProt P60328 1-96)
T4 construct: HuProt array protein, full-length recombinant from yeast; also called KRTAP12-3
T4 sequence: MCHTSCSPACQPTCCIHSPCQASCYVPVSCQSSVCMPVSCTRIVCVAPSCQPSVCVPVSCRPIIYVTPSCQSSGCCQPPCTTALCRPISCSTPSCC

PAGE family member 2 = molecular target: T5, PAGE family member 2 (human, UniProt Q7Z2X7 1-111)
T5 construct: HuProt array protein, full-length recombinant from yeast; also called PAGE2
T5 sequence: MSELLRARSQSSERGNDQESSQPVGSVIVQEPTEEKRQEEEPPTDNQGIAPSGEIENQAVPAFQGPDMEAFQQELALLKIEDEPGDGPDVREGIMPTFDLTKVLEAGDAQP

[3] = molecular target: T6, X-linked inhibitor of apoptosis, transcript variant 2 (human, UniProt P98170 1-497); test: protein array
T6 construct: on protein array; also called XIAP

[4] = molecular target: T7, SAS-6 centriolar assembly protein, transcript variant 2 (human, UniProt Q6UVJ0 168-657)
T7 construct: HuProt array protein, full-length recombinant from yeast; also called SASS6
T7 sequence: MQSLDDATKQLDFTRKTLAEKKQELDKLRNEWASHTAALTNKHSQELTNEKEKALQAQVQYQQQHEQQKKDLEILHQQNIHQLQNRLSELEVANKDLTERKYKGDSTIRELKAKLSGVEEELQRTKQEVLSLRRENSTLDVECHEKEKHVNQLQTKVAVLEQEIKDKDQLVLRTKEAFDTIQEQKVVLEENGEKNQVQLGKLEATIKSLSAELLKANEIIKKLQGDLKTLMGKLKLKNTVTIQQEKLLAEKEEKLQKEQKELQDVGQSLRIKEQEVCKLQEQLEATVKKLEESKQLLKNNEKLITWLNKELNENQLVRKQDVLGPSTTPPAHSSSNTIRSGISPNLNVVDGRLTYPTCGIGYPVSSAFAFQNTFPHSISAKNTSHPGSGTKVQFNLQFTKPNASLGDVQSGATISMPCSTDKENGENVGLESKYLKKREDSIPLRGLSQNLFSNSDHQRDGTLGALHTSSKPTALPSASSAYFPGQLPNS

[5] = molecular target: T8, arginine and glutamate rich 1 (human, UniProt Q9NWB6 1-273)
T8 construct: HuProt array protein, full-length recombinant from yeast; also called ARGLU1
T8 sequence: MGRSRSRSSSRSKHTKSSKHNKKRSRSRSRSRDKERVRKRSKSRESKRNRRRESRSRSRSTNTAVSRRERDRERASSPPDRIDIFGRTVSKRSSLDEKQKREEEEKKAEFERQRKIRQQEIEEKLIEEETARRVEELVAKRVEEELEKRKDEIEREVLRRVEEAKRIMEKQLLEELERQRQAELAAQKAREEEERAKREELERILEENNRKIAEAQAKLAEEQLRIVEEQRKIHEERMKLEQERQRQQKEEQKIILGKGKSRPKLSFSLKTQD

[6] = molecular target: T9, serpin family B member 6, transcript variant 2 (human, UniProt P35237 1-376)
T9 construct: HuProt array protein, full-length recombinant from yeast; also called SERPINB6
T9 sequence: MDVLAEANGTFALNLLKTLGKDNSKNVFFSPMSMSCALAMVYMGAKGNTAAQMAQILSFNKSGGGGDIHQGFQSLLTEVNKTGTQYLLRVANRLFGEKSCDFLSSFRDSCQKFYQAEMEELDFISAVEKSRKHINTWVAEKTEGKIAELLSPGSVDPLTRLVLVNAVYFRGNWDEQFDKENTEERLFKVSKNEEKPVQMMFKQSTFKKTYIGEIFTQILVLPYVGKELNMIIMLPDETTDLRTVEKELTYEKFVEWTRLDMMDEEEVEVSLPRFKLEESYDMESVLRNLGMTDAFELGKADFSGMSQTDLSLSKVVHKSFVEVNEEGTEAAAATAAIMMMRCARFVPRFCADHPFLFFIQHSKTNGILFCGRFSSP

[7] = molecular target: T10, proteasome 26S subunit, non-ATPase 4, transcript variant 2 (human, UniProt P55036 1-377)
T10 construct: HuProt array protein, full-length recombinant from yeast; also called PSMD4

[8] = molecular target: T11, Src like adaptor, transcript variant 1 (human, UniProt Q13239 2-276)
T11 construct: HuProt array protein, full-length recombinant from yeast; also called SLA
T11 sequence: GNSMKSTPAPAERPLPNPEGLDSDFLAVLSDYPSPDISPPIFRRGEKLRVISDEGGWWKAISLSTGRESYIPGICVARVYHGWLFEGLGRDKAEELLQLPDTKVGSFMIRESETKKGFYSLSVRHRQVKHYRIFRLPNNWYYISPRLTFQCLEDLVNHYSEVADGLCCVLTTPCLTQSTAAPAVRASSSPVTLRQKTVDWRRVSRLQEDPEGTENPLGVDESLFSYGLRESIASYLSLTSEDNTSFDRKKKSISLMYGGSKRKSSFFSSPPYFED

[9] = molecular target: T12, methionyl-tRNA synthetase 1 (human, UniProt P56192 1-900)
T12 construct: HuProt array protein, full-length recombinant from yeast; also called MARS
T12 sequence: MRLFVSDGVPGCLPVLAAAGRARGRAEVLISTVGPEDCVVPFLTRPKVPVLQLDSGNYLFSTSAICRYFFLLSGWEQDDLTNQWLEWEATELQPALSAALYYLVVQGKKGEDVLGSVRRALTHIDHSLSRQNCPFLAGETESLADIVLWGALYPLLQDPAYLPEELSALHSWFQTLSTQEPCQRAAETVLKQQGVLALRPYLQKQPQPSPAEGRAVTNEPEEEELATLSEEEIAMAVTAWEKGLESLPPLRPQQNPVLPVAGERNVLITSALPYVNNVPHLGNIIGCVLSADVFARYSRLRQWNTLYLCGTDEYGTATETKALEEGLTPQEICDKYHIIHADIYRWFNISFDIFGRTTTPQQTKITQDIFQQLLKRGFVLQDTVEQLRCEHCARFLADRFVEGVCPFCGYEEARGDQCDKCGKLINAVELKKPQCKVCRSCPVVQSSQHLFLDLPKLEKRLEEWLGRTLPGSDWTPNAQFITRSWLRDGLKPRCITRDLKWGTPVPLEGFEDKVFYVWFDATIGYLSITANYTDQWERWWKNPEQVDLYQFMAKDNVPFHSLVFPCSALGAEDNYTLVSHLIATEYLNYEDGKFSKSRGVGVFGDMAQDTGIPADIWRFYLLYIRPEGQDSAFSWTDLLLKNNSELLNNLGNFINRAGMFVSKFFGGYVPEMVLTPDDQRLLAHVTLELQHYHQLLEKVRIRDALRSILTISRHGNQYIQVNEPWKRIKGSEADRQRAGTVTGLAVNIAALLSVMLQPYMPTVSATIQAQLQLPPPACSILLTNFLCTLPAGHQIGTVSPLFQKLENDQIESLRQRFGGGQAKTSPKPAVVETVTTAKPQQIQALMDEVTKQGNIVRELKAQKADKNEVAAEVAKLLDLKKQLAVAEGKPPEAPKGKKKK

[10] = molecular target: T13, rhophilin associated tail protein 1 like, transcript variant 2 (human, UniProt Q96C74 1-230)
T13 construct: HuProt array protein, full-length recombinant from yeast; also called ROPN1L
T13 sequence: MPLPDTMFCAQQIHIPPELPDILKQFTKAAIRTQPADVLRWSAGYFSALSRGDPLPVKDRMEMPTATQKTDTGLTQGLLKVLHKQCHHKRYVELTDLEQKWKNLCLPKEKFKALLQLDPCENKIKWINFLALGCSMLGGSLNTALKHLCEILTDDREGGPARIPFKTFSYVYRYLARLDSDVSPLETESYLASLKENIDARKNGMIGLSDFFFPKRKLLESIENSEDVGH

[11] = molecular target: T14, Dpy-30 histone methyltransferase complex regulatory subunit (human, UniProt Q9C005 1-99)
T14 construct: HuProt array protein, full-length recombinant from yeast

enolase 2 = molecular target: T15, enolase 2 (human, UniProt P09104 2-434)
T15 construct: HuProt array protein, full-length recombinant from yeast; also called ENO2
T15 sequence (P09104 2-434 limits assumed): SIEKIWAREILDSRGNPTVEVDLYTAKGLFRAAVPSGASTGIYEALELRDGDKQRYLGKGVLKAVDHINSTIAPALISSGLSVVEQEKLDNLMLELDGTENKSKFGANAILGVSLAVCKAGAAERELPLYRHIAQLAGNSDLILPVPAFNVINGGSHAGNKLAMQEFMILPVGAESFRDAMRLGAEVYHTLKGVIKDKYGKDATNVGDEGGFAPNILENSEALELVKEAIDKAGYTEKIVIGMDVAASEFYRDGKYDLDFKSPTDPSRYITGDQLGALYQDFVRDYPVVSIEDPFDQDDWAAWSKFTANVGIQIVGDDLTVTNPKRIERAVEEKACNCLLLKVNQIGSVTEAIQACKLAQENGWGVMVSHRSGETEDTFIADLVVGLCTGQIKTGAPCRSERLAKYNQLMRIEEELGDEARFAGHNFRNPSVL

T3 sequence (Q8TF32 other isoform, or with tags, fused parts or gaps mutant limits assumed): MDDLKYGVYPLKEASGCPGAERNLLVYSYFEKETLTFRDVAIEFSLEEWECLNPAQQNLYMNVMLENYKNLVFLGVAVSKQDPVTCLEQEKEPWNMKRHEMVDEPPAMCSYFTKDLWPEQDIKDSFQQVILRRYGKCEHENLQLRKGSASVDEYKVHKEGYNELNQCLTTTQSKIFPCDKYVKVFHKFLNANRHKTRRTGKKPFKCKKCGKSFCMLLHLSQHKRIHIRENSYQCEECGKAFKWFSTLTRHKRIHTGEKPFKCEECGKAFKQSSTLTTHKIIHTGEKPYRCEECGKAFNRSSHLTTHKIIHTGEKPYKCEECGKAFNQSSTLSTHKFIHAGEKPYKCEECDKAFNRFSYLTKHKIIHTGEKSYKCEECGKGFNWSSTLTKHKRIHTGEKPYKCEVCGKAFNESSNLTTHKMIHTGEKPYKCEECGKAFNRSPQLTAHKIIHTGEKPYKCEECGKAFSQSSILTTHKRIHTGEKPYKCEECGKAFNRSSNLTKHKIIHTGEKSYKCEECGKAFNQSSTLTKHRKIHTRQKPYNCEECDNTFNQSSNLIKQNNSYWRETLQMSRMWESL
T14 sequence (Q9C005 whole entry, one chain of several): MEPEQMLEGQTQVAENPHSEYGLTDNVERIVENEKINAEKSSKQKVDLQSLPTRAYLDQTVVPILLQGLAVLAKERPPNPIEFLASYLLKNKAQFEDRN
T2 sequence (O43809 2-227 limits assumed): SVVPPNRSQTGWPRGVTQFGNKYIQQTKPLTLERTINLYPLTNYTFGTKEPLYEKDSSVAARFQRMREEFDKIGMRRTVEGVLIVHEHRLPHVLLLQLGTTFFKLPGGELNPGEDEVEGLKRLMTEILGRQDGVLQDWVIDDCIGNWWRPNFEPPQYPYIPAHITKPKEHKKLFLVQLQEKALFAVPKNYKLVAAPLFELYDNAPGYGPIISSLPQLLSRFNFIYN
T6 sequence (P98170 whole entry, change not shown): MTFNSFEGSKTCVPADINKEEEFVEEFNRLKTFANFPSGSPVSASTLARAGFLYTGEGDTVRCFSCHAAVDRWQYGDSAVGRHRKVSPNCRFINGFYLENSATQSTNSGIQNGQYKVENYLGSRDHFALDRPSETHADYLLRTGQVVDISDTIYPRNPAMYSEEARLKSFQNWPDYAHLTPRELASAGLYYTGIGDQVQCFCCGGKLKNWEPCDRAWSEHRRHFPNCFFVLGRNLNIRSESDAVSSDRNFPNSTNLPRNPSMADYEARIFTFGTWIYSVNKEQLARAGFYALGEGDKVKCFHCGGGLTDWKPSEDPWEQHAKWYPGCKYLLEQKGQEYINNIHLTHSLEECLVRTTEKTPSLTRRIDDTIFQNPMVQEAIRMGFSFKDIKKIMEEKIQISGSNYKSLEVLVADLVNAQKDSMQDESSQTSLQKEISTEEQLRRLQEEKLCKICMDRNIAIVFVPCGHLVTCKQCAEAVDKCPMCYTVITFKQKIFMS
T10 sequence (P55036 whole entry, change not shown): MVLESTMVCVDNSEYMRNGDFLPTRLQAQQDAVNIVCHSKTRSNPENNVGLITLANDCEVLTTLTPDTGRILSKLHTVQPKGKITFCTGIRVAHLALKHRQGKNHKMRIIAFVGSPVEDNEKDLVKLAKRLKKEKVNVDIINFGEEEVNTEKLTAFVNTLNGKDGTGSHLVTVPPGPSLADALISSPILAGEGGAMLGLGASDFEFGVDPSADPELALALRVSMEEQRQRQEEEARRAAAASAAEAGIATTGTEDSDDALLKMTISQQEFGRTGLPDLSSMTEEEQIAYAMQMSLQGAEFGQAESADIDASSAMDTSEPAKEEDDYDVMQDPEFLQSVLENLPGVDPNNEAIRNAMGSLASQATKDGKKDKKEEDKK
T1 sequence (Q32M78 whole entry): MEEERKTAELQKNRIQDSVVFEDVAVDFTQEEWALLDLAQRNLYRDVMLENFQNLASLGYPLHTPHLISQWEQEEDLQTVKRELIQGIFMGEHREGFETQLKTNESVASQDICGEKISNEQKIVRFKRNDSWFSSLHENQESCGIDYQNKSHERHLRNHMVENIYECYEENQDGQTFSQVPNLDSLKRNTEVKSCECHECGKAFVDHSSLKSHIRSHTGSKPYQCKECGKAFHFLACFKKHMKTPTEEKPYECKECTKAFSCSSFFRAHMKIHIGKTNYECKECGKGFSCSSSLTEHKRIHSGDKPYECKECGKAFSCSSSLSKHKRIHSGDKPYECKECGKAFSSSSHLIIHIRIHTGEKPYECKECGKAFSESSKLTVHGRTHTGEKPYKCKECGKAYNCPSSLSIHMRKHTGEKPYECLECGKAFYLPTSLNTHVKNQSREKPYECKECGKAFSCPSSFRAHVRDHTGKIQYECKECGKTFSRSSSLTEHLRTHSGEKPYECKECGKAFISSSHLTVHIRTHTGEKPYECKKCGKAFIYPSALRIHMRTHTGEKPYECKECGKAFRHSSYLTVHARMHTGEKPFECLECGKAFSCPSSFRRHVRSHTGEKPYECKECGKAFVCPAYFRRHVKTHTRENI

B1: TMEL1033 (antibody, V domains shown)
VH: PVQLQESGPGLVKPSETLSLTCTVSGGSVSSGSYYWSWIRQPPGKGLEWIGYIYYSGSTNYNPSLKSRVTISVDTSKNQFSLKLSSVTAADTAVYYCARDRGDYVTHWFDPWGQGTLVTVSS
VL: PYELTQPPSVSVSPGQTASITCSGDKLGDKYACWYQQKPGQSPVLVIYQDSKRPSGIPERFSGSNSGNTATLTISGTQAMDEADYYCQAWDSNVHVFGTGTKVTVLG
notes: detected with anti-human IgG Fc
Zinc finger protein 699
  binding result: binds
Nudix hydrolase 21
  binding result: binds
[1]
  binding result: binds

B2: TMEL1035 (antibody, V domains shown)
VH: QVQLVESGGGVVQPGRSLRLSCAASGFTFSSYAMHWVRQAPGKGLEWVAVISYDGSNKYYADSVKGRFTISRDNSKNTLYLQMNSLRAEDTAVYYCASPIAVAAPFAYWGQGTLVTVSS
VL: VSSELTQDPAVSVALGQTVRITCQGDSLRSYYASWYQQKPGQAPVLVIYGKNNRPSGIPDRFSGSSSGNTASLTITGAQAEDEADYYCNSRDSSGNLYVFGTGTKVTVLG
notes: as for B1
[2]
  binding result: binds
PAGE family member 2
  binding result: binds

B3: TBRE1032 (antibody, V domains shown)
VH: EVQLVESGGGLVQPGGSLRLSCAASGFTFSSYDFHWVRQPTGKGLEWVSAIGTAGDTLYLDSVKGRFTISRENAKNSLYLQMNSLRAGDTAVYYCARVNWNSDTFDSWGQGTLVTVSS
VL: VSSELTQDPAVSVALGQTVRITCQGDSLRRYYASWYQQKAGQAPILVIYGENNRPSGIPDRFSGSGSGNTASLTITGAQAEDEADYYCDSRDSSGNLVVFGGGTKLTVL
notes: VH/VL only
[3]
  binding result: binds

B4: TMEL1031 (antibody, V domains shown)
VH: EVQLVESGGGLVQPGGSLRLSCAASGFTVSSNYMSWVRQAPGKGLEWVSVIYSGGSTYYADSVKGRFTISRDNSKNTLSLQMNSLRAEDTAVYYCARESSAAGYDYWGQGTLVTVSS
VL: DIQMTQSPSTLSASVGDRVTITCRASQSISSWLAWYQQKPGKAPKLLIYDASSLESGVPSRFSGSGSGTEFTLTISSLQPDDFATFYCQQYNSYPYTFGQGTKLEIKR
notes: as for B1
[4]
  binding result: binds
[5]
  binding result: binds

B5: TMEL1040 (antibody, V domains shown)
VH: EVQLVQSGAEVKKPGESLKISCKGSGYSFTTYWIAWVRQMPGKGLEWMGIIYPADSDTRYSPSFQGQVTMSADQSINTAYLQWSSLKASDTAMYYCARRGREFDYWGQGTLLTVSS
VL: QSALTQPASVSGSPGQSITISCTGTSSDVGSYNLVSWYQQHPGKAPKLMIYEGSKRPSGVSNRFSGSKSGNTASLTISGLQAEDEADYYCCSYAGSSTPWVFGGGTKLTVL
notes: as for B1
[6]
  binding result: binds

B6: TMEL1032 (antibody, V domains shown)
VH: QVQLVQSGAEVRKPGASVKVSCKASGYTFTTYYIHWVRQAPGQGLEWMGLINPNGGTTNYAQKFQGRLSMTTDTSTNTVYMELSSLRSEDTAVYYCARKLMSGIVSRGWFDPWGQGTLVTVSS
VL: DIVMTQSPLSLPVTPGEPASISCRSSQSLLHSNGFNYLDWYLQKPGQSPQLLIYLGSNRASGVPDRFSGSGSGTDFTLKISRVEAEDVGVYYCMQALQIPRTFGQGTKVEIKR
notes: as for B1
[7]
  binding result: binds
[8]
  binding result: binds

B7: TMEL1038 (antibody, V domains shown)
VH: QVQLVQSGAEVKKPGASVKVSCQASGYTFTGYYIHWVRQAPGQGLEWMGWINPNSGGTNYAQKFQGRVTMTRDTSISTAHMELGRLRSDDTAVYYCATPPSRYGGNYYADYWGQGTLVTVSS
VL: ASALTQPASVSGSPGQSITISCTGTSSDVGGYNYVSWYQQHPGKAPQLMIFDVSNRPSGVSNRFSGSKSGDTASLTISGLQAEDEADYYCSSYTSSSTWVFGGGTKLTVLG
notes: as for B1
[9]
  binding result: binds

B8: TMEL1041 (antibody, V domains shown)
VH: EVQLLESGGGLVQPGGSLRLSCAASGFTFRIYAMSWVRQAPGKGLEWVSAISYSGNTTYYADSVKGRFTISRDNSKNTLYLQINNLRAEDTAIYYCAIQEKRELQLRRELDNYWGQGTLVTVSS
VL: PYELTQPPSVSLSPGQTARITCSGDALPKKYAYWYQQKSGQAPVLVIYEDSKRPSGIPERFSGSSSGTTATLTISGAQVDDEGDYYCYSPDSSGNVWVFGGGTKLTVLG
notes: as for B1
[10]
  binding result: binds
[11]
  binding result: binds

B9: TMEL1037 (antibody, V domains shown)
VH: PLQLQESGPGLVKPSETLSLTCTVSGGSISSSSYYWGWIRQSPGKGLEWMGSIYYSGSTYYNPSLKSRVTISVDTSKNQFSLNLSSVTAADTAVYYCARHDYRNYFDYWGQGTLVTVSS
VL: not shown
notes: as for B1
Enolase 2
  binding result: binds
